Experiment [1] deals with mIgM proximal domain peptide conjugated to keyhole limpet hemocyanin (human). Put plainly: ELISA, KLH-PDm. (An ELISA detects its analyte on a solid surface through an enzyme-linked reagent.)
For experiment [2] the target is unchanged. Kind of experiment: ELISA direct binding, mIgM-PD-KLH.
The target is the same in experiment [3]. Put plainly: competition ELISA on KLH-mIgM-PD, competitor unlabeled mAb 1.
The target is the same in experiment [4]. Put plainly: competition ELISA on KLH-mIgM-PD, competitor unlabeled mAb 2.
Experiment [5] shares this target. Kind of experiment: competition ELISA on KLH-mIgM-PD, competitor unlabeled mAb 3.
Experiment [6] has the same target. Put plainly: competition ELISA on KLH-mIgM-PD, competitor unlabeled mAb 4.
The target is the same in experiment [7]. Kind of experiment: competition ELISA on mIgM-PD-KLH, competitor unlabeled mAb 1.
Experiment [8] has the same target. Put plainly: competition ELISA on mIgM-PD-KLH, competitor unlabeled mAb 2.
Experiment [9] has the same target. Put plainly: competition ELISA on mIgM-PD-KLH, competitor unlabeled mAb 3.
Experiment [10] has the same target. Put plainly: competition ELISA on mIgM-PD-KLH, competitor unlabeled mAb 4.

B1: monoclonal antibody mAb4-2b (antibody, mouse IgG1, V domains shown)
VH: EVQLEESGAELVKPGASLKLSCKASGYTFTSYWMNWVKQRPGQGLEWIGIIHPNSGSTNYNEKFKTKATLTVDKSSSTAYMQLSSLTSEDSAVYYCARTRGNYGMDYWGQGTSVTVSS
VL: DIVMTQSHKFMSTSVGDRVSITCKASQDVSTAVAWYQQKPGQSPTLLIYSASYRNTGVPDRFTGSGSGTDFTFTISSVQAEDLAVYYCQQHFSIPPLTFGAGTKLELKR
For B1, the ELISA reading in experiment [1] turned out to be 0.9; in experiment [2], 0.5. Also, the mAb-HRP binding after blocking by unlabeled mAb in [3] came out at 74; in experiment [4], 68; in experiment [5], 72; in experiment [6] it was 14; in experiment [7], 52; in [8] it was 71. Further, the figures for the mAb-HRP binding after blocking by unlabeled mAb in experiment [9] and in experiment [10] were 62 and 9, respectively.

These data come from US20160304625A1.
